T1: murine CD300E-Fc (mouse)
T1 construct: mouse IgG2a-Fc fusion (R&D Systems); the entry is the whole fusion chain; also called mCD300E; Mouse CD300E-Fc
T1 chain: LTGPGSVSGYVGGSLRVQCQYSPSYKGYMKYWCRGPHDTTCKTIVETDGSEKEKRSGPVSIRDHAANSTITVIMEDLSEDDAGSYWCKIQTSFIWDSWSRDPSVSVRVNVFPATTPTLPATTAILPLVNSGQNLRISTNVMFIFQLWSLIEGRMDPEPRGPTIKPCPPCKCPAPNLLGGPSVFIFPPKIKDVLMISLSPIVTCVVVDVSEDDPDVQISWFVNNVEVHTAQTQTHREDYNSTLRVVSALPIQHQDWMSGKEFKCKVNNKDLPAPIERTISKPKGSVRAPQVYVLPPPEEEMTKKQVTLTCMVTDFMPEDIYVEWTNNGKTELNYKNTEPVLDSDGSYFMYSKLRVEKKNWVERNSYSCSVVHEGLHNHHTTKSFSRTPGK

T2: murine CD300LB-Fc (mouse)
T2 construct: mouse IgG2a-Fc fusion (R&D Systems); the entry is the whole fusion chain; also called mCD300LB; Mouse CD300LB-Fc
T2 chain: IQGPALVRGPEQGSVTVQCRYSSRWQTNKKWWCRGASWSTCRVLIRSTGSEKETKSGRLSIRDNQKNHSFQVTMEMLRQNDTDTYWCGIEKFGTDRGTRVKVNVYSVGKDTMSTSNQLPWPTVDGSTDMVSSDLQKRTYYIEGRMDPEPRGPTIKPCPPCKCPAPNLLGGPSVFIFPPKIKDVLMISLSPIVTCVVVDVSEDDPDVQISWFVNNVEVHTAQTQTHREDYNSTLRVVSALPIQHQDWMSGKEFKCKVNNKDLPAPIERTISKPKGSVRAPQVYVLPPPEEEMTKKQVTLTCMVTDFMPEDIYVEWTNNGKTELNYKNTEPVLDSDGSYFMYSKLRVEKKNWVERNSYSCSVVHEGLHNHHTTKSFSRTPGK

T3: huCD300F constitutively expressed on 293 Freestyle (Freestyle HEK) cells (human, UniProt Q8TDQ1 20-290)
T3 construct: also called huCD300LF; Human CD300F
T3 sequence: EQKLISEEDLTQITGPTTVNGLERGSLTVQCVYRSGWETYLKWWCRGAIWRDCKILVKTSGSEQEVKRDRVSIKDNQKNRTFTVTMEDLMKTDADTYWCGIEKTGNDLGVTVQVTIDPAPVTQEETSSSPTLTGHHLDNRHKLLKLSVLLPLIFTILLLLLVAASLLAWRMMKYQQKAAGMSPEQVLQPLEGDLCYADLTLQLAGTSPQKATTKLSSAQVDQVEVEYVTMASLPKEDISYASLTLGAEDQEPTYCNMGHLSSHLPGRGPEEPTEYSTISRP

B1: anti-CD300LB antibody CD-14 (antibody, V domains shown)
VH: QIQLVQSGPELKKPGETVKISCKASGYTFTDYSLHWVKQTPEKNLKWMAWINTETGAPTYADDFKGRFAFSLETSSNTAYLLINNLKNEDTATYFCALTMVNYWGQGTTLTVSS
VL: DIVMTQSQKFMSTSVGDRVSVTCKASQNVGIRVAWHQQKPGQSPKTLIYSTSYRYSGVPDRFTGSGSGTEFILTISNVQSEDLAEYFCQQYNSYPYTFGGGTKLEIK
B2: anti-CD300LB antibody CD-10 (antibody, V domains shown)
VH: QVQLQQSGPELVRPGVSVKISCKGSGYTFTDYAMHWVKQSHVRSREWIGVIGTYNGHTNYNQKFKGKATMTVDKSSSTAYLELARLTSEDSAIYYCARSGSYYYSMDYWGQGTSVTVSS
VL: QIVLTQSPAIMSASPGEKVTMTCSASSSVNYMHWYQQKSGTSPKRWIYDTSKLSSGVPARFSGSGSGTSYSLTISTMEAEDAATYYCQQWSSNPPMTFGGGTKLEIK
B3: anti-CD300LB antibody CD-12 (antibody, V domains shown)
VH: QIQLVQSGPELKKPGETVKISCKASGYTFTDYSMHWVRQAPGKGLKWMAWINTETGEATHADDFKGRFDFSLDTSASTAYLQIKNLKNEDTGIYFCVCYGSSYGMDYWGQGTSVTVSS
VL: DIVLTQSPASLPVSLGQRATISCRASKSVRTSGASYMHWYQQKPGQPPKLLIYLASNLKSGVPTRFSGSGSGTDFTLNIHPVEEEDAATYYCQHNREVPPTFGGGTKLEIK
B4: anti-CD300LB antibody CD-17 (antibody, V domains shown)
VH: QIQLVQSGPELKKPGETVKISCKASGYTLTDYSMHWVKQAPGKGLKWMGWINTETGEPRYGDDFKGRFAFSLETSASSAYLQINNLKNDDTATYFCATYGRSYGMDFWGQGTSVTVSS
VL: B3 VL with P12A, R30S, T31P, A34H, T64A, E85G, V98L, T106S
B5: anti-CD300LB antibody CD-15 (antibody, V domains shown)
VH: QIQLVQSGPELKKPGETVKISCQVSGYTFTDYSMHWLKQAPGKGLKWMAWINTETGESTYTDEFKGRFVFSLETSVRTAYLKINNLKNEDTATYFCGTYGSSYGMAYWGQGTSVTVSS
VL: B3 VL with R30S, A34S, M37L, N57K, K59E, T64A, S67R
B6: anti-CD300LB antibody CD-13 (antibody, V domains shown)
VH: QIQLVQSGPELKKPGETVKISCKASGYTFTDYSMHWVKQAPGKGFKWMAWINTETGAPTHADDFRGRFAFSLETSASTAFLQISNLKTEDTATYFCVTFGKSYGMNYWGQGTSVTVSS
VL: B3 VL with P12S, R30G, T31S, A34S, M37L, K59E, T64A, D74E, R96A
B7: anti-CD300LB antibody CD-16 (antibody, V domains shown)
VH: QIQLVQSGPELKKPGETVKISCKASGYTFTDYSMHWVKQAPGKGLKWMAWINTETGEPTYADDFRGRFAFSLETSGRTAYLEINNLRNEDTATYFCVTYGSSYGMAYWGQGTSVTVSS
VL: B3 VL with P12A, R30S, T31R, A34Y, M37L, N57K, K59E, T64A, E84A, V98I
B8: anti-CD300LB antibody CD-11 (antibody, V domains shown)
VH: QIQLVQSGPEVKKPGETVKISCKASGYTLTDYSMHWVMQTPGTGLKWMAWMNTETGEPTYADDFKGRFAFSLETSAGTAYLQIDNLKNEDTATYFCATYGKSYGMKYWGQGTSVTVSS
VL: DIVLTQSPPSLAVSLGQRATISCRATKSVSPYLHWYQQTPGQPPKLLIYLASNLDSGVPARFSGSGSGTDFTLNIHPVEEEDAATYYCQHNKELPPTFGGGTRLEIK
B9: anti-CD300LB antibody CD-18 (antibody, V domains shown)
VH: DVQLQESGPDLVKPSQSLSLTCTVTGYSITSGYSWHWIRQFPDNKLEWMGYILSRGDTNFNPSLKSRISITRSTSNNQFFLHFNSVTTEDTATYYCARDFFDYWGQGTTLTVSS
VL: DVLMTQTPLSLPVSLGDQASISCRSSQSIVHSNGNTYLEWYLQKPGQSPKLLIYKVSDRFSGVPDRFSGSGSGTDFTLKISRVEAEDLGVYFCFQGSHVPYTFGGGTKLEIK
B10: anti-CD300LB antibody CD-07 (antibody, V domains shown)
VH: QVQLVQSGAEVKKPGASVKVSCKASGYTFTNYRMHWVRQAPGQGLEWMGWINPNSGGTIYAQKFQGRVTMTRDTSTSTVYMELSSLRSEDTAVYYCARDLDYWGQGTLVTVSS
VL: DIQMTQSPSSLSASVGDRVTITCQASQDISNYLNWYQQKPGKAPKLLIYGASSLQSGVPSRFSGSGSGTDFTLTISSLQPEDFATYYCQQSYSTPWTFGPGTKVEIK
B11: anti-CD300LB antibody CD-05 (antibody, V domains shown)
VH: QVQLVQSGAEVKKPGASVKVSCKASGYTFSRYYINWVRQAPGQGLEWMGWINPNSGGTNYAQKFQGRVTMTRDTSTSTVYMELSSLRSEDTAVYYCTTDQLRFGKTGPYYGMDVWGQGTTVTVSS
VL: B10 VL with Q24R, D28N, S30G, N31T, G50A, T94D, P95T, W96L, P100G

Changes are numbered by the printed parent chain.

T4 sequence (chain, as listed by the source limits assumed): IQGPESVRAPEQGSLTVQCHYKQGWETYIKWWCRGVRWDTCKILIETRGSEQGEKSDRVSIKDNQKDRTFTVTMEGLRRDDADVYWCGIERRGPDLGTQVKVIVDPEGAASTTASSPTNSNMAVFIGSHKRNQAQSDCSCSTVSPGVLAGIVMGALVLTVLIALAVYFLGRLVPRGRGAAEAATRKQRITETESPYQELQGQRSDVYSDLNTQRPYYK

The target in the first test is T1, murine CD300E-Fc. Briefly: SPR (Carterra LSA), antibody immobilised, Fc fusion at 300 or 600 nM. On the procedure: (§1) Binding of mouse anti-CD300LB IgG1 antibodies of the present disclosure to human and murine CD300 orthologs were evaluated by surface plasmon resonance (SPR) using a Carterra LSA instrument (Carterra, Salt Lake City, UT). […] A HC200M sensor chip (Carterra) was activated using the single channel flow cell with a 7-minute injection of a 1:1:1 mixture of 100 mM MES pH 5.5, 100 mM sulfo-NHS, 400 mM EDC (all reconstituted in MES pH 5.5; 100 μL of each mixed in vial immediately before running assay). After switching to the multi-channel array flow cell, the antibodies were injected over the activated chip in a 96-spot array for 10 minutes. The remaining unconjugated active groups on the chip were then blocked by injecting 1M Ethanolamine pH 8.5 (Carterra) for 7 minutes using the single channel flow cell. After priming with running buffer (HBS-TE, Carterra) with 0.5 mg/ml BSA (Sigma), the immobilized anti-CD300LB antibodies were tested for their ability to bind human and mouse recombinant CD300LB extracellular domains. Human CD300 family members and mouse CD300A were hIgG1-Fc fusions, while mouse CD300LB, mouse CD300C, mouse CD300D, and mouse CD300E were mouse IgG2a-Fc fusions (R&D Systems). Binding was assessed by injecting each analyte over the entire antibody array using the single channel flow cell. CD300 analytes were diluted to 300 nM or 600 nM in running buffer and injected in series without regeneration. Two or three buffer blanks were run between each mouse or human ortholog, respectively. Data were processed and analyzed using NextGenKIT high-throughput kinetics analysis software (Carterra).
(§2) Results of anti-CD300LB antibody binding to murine CD300 family members is provided below in Table 8.
For the molecule B1, the “SPR binding (control subtracted)” value is 3.6.

B2: the “SPR binding (control subtracted)” value is 11.3.

On to B3, for which the “SPR binding (control subtracted)” value is -0.6.

Take B4: the “SPR binding (control subtracted)” value was -0.7.

With B5, the “SPR binding (control subtracted)” value stood at 0.8.

Consider B6, for which the “SPR binding (control subtracted)” value amounted to 4.5.

In the case of B7, the “SPR binding (control subtracted)” value came out at 8.6.

B8: the “SPR binding (control subtracted)” value came out at 7.4.

Take B9: the “SPR binding (control subtracted)” value was -0.1.

For the next test, the target named is T2, murine CD300LB-Fc. The description is as above. On the procedure:
as §1, §2
As for B1, the “SPR binding (control subtracted)” value was 29.

Regarding B2, the “SPR binding (control subtracted)” value was determined as 370.

With B3, the “SPR binding (control subtracted)” value amounted to 43.2.

Take B4: the “SPR binding (control subtracted)” value was 11.3.

Consider B5, for which the “SPR binding (control subtracted)” value amounted to 50.

Regarding B6, the “SPR binding (control subtracted)” value is 82.4.

With B7, the “SPR binding (control subtracted)” value amounted to 310.

Take B8: the “SPR binding (control subtracted)” value was found to be 87.7.

Consider B9, for which the “SPR binding (control subtracted)” value worked out at 328.

A further test has as its target T4, huCD300LB-DAP12 fusion constitutively expressed on 293 Freestyle (Freestyle HEK) cells (human).
T4 construct: also called Human CD300LB-DAP12 chimera
Briefly: flow cytometry, stable Freestyle HEK cells. On the procedure: (§3) Other members of the human CD300 family share sequence homology with human CD300LB. Thus, counter screens against binding of the anti-CD300LB antibodies to huCD300A, huCD300C, huCD300LD, huCD300E, huCD300LF, and huCD300G by stable overexpression in Freestyle HEK cells (generation of which is described above) were performed as follows. Cells were counted and labeled with 200 nM CFSE, 500 nM VioBlue, or a combination of the two to discriminate between CD300LB, Parental cells, and the other CD300 family members. Cells were washed thoroughly with PBS containing 2% fetal bovine serum then resuspended at a total of 240,000 cells per well. Hybridoma supernatants (100 L) or purified antibodies at various concentrations were added and incubated for one hour before the cells were washed twice again and stained with an APC-labeled anti-human or anti-mouse secondary antibody. Cells were then analyzed using a BD FACSCanto II. Anti-CD300LB antibodies were analyzed for specific binding to human CD300LB by FlowJo software by gating on live cells, then the APC geometric mean fluorescence intensity (gMFI) calculated for each labeled population. The results are shown in […]
(§4) Freestyle HEK cells were transfected with huCD300A, huCD300C, huCD300D, huCD300E, and huCD300G separately. Then, five stable cell lines from these transfections were pooled; the combined cells are herein known as CD300A/C/D/E/G. Freestyle HEK cells were also transfected with huCD300LB and huCD300F. All transfected cells were then tested for binding of anti-CD300LB antibodies of the present disclosure.
For the molecule B10, the gMFI worked out at 31500 gMFI.

Consider B11, for which the gMFI was found to be 113000 gMFI.

The next test has as its target T3, huCD300F constitutively expressed on …. Briefly: flow cytometry, stable Freestyle HEK cells. On the procedure: as §3, §4
B10: the binding result was “no binding” and the gMFI amounted to 112 gMFI.

In the case of B11, the binding result is reported as “no binding” and the gMFI is 2730 gMFI.

The values above are taken from patent US20240254227A1 (Alector, published 2024).
